Target: T1, mouse integrin αvβ3 on NIH3T3 cells (mouse, UniProt P43406 31-1044; O54890 26-787)
T1 construct: whole, on cells; Presented on NIH3T3 transformants; also called αvβ3 integrin; 3T3/αvβ3
Test: cell adhesion assay on PS-coated wells pretreated with D89E
Method: Peroxidase activity was detected using a peroxidase-detecting kit (Sumitomo Bakelite). To assay the ability of MFG-E8 to link the cells to phospholipids, MFG-E8 was bound to microtiter plates coated with phospholipids as described above. In tyrode buffer containing the cells (4×10⁴) (5 mM Hepes-NaOH buffer [pH 7.4], 135 mM NaCl, 5.4 mM KCl, 1.0 mM MgCl₂, 10 mM glucose, and 10 mg/ml BSA) was added to each well, and incubated at room temperature for 1 hour. The cells that had adhered to the plates were quantified by a CyQUANT Cell Proliferation Assay kit (Molecular Probes) using a fluorescent microplate reader (BioLumin 960, Molecular Dynamics) set at excitation wavelength of 485 nm and emission wavelength of 520 nm.
Therefore, the possibility that MFG-E8-L might bind to integrin-expressing cells after said cells are bound to phospholipids was investigated. Microtiter wells coated with PS or PE were successively incubated with three different concentrations (0.1, 1.0 and 2.0 μg/ml) of MFG-E8-L or D89E, and with NIH3T3 (3T3/WT) or αᵥβ₃ integrin-expressing transformants (3T3/αᵥβ₃), and subjected to cell adhesion assay. The number of cells attached to the wells was quantified as described in the methods described in Example A-6. […] D89E mutant was not capable of intermediating the adhering of NIH3T3 cells to the wells coated with PS. […]

T1 sequence (P43406 31-1044, chain 1 of 2): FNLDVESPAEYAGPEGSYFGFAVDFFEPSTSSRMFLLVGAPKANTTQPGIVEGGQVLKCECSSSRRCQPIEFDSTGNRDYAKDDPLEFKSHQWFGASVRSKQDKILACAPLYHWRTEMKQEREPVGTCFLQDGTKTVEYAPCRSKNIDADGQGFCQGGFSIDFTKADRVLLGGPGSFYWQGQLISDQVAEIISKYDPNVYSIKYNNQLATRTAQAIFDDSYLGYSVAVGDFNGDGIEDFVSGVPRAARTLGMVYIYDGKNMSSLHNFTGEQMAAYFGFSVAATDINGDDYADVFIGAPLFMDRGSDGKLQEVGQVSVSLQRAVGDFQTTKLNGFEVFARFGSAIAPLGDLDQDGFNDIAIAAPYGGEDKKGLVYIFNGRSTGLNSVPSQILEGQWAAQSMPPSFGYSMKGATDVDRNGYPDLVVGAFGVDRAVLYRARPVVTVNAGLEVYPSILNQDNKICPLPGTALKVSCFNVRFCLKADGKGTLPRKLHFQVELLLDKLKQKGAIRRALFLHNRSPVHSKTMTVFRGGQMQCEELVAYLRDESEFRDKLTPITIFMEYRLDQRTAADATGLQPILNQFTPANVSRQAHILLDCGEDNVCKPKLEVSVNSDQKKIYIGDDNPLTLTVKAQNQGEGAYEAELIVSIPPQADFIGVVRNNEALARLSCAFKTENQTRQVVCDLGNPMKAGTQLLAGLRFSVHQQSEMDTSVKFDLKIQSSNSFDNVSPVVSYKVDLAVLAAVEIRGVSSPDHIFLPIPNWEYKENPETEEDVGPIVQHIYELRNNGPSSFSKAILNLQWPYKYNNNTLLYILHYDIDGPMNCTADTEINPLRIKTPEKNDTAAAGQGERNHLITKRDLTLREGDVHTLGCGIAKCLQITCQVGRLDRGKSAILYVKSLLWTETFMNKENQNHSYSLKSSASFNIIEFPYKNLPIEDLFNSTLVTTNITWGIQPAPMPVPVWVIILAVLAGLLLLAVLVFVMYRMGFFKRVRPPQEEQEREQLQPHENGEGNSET
T1 sequence (O54890 26-787, chain 2 of 2): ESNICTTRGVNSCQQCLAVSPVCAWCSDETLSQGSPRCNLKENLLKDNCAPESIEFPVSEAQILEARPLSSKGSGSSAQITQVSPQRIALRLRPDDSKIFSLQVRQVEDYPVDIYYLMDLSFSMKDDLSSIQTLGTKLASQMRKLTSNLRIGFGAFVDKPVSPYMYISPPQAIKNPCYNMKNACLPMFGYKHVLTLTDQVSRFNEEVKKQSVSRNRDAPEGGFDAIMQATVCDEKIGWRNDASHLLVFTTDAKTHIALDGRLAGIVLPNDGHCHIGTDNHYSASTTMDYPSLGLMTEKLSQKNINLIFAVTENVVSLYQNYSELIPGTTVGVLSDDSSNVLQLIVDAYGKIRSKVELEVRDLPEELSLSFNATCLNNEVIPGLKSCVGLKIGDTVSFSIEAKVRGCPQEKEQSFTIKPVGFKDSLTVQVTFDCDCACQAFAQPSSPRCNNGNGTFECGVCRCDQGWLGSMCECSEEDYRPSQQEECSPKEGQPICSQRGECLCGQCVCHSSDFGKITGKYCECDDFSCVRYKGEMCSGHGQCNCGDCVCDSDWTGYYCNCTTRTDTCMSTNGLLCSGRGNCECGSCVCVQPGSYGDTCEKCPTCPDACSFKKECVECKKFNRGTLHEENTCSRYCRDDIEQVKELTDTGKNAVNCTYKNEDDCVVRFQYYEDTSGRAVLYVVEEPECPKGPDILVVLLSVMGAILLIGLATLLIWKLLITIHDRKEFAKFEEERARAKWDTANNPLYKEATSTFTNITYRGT

B1: D89E mutant of mouse MFG-E8-L (ligand)
chain: ASGDFCDSSLCLNGGTCLTGQDNDIYCLCPEGFTGLVCNETERGPCSPNPCYNDAKCLVTLDTQRGEIFTEYICQCPVGYSGIHCETETNYYNLDGEYMFTTAVPNTAVPTPAPTPDLSNNLASRCSTQLGMEGGAIADSQISASSVYMGFMGLQRWGPELARLYRTGIVNAWTASNYDSKPWIQVNLLRKMRVSGVMTQGASRAGRAEYLKTFKVAYSLDGRKFEFIQDESGGDKEFLGNLDNNSLKVNMFNPTLEAQYIRLYPVSCHRGCTLRFELLGCELHGCSEPLGLKNNTIPDSQMSASSSYKTWNLRAFGWYPHLGRLDNQGKINAWTAQSNSAKEWLQVDLGTQRQVTGIITQGARDFGHIQYVASYKVAHSDDGVQWTVYEEQGSSKVFQGNLDNNSHKKNIFEKPFMARYVRVLPVSWHNRITLRLELLGC
notes: Point mutation in the RGD motif of the second EGF domain; Expressed in human 293T cells; also called D89 mutant; not shown: FLAG marker peptide at the C-terminus (derivatives were detected with anti-FLAG)
  binding result: no binding (tested: 0.1, 1.0 and 2.0 µg/ml)

— US20060233806A1 (JAPAN SCIENCE AND TECHNOLOGY AGENCY, published 2006)
